Laboratory results as given in the DeepSol protein solubility set.

Experiment: soluble on expression in E. coli; label from the status in PepcDB or PDB records

| Sequence | soluble on expression in E. coli |
| --- | --- |
| MNKRNWTAYYNSTKQNTLPRKSLLKAIANFDKEKINLSKSAIDLGCGAGIDVMELLRCGWSVIAIDSQLSAIDSLLSSAQELTCANKLKTIISSFEALDSLPKVNLINASFSLPFLKPVYFYKFWSVILKGLKPGGRFSGSFFGFNDFWNTRTDMTFLNREMICHLFSQFKIEYFQEEEKDEMDALGYYKHWHKFFIVAKKIALEHHHHHH | not soluble |
| MGSDKIHHHHHHMKKFVCSNCGYVSPKWFGRCPQCGEYDTAEEVQRRKNREGSPSLFLNLEDAGEISLERLSTGFSELDRAFRGGIVPGQVILLSGEPGIGKSTIALQIAERFAERGLVVYVSGEESPQQLKLRADRLLLKRKKDILLTLENDIDEIISSLQNKRVSFMVVDSIQTVFSSDLGSSPGSISQVKNVTMKTIDFAKRRGVPVLLVGHVTKEGEIAGPKLVEHMVDTVAYFEGDRRTGLRLLKITKNRFGPSDEVAVFELKENGFVQVENPSFTEGDADLPGNVLTCVFEGTKPFVVQIQALVSKNRTFSPKRVCKGVDVNRVMLLIAVISKYLKLPIETHDVYVNVVGGLRVTDPAADLAIALSIVSSYLEVSLHNTAAVGEIGLDGRVRKVYNINRRLNSLKSSGRIIVPPIEEEQKGVFEVRDLKEAVSIIGGEILGTPGAD | not soluble |
| MAHHHHHHMHSRTAPPLPPHTFAQVLHDRFVHYNDGKNKQTNIKRRNANNLNSFSYTAARAQGVVPRVDSTLGLLWTWRWAGAYGVACVCVCLCAADKMSAARHSHPPPPSLSRCRFPPPALFIMHRAHTYLLCIAAHLLLSPPPPSSPSRFVFASSSLSCPGCAFSWVTRFVSSMLRRTLCCGMMQLHALPTPNPLCHTFTIPADSFESFVPQGQSCEVAHRGLAWVHPLSQGLFEQYPQELMSVFIAPRHVSISVYTNVDWSKIEWSISSFLGHYLIFTNACISPAKEYTLMEDDLELKDTDTEVLQCIKELLREQVRPMVQRDGGDVKLLNFNEKTGIVSLAMLGACKTCPSSQNTLKDGIERVMKHFVPEVTEVIEDKEHQFYEDYGLLFDSEKALFKEAARLDRERQAKLRHNLTPMVLSYEVLNEPDGD | not soluble |
| MLTRLAVEAAEQARLAAEVEAQRIAAETAEHARVVAEAEAKRVADEQALFAAEAEAHRITAEAAEQARMEAEAQAQRDADEHARVTAEAQALEAGKTLRLPEAGTPQLGAVAGVISVTAGSGLFLDATIQAAIEILAALVGTAVSSTTAVGIGTLLYSPSLGNGELPGRMLDLPARVLMPDLPDALNDVAATGGTVDMPYRIYGDQSKYSVVATQPEGGFSPKVPVRALILDPVANAYTFTTSDTPPITLTFPIAAPENSSTTTVAQPIETPAYTGITLEPIEVKAEPLPATSPLDIRDAIYVYPVNSGLPPVYVVFSSPYEGATTKGEHSGRMYDPDNAGGPTQNLDWTTASVTQNGIDLVKLHTGRFEPSDANAVMIDRLEKILRSELSMTDTDKRFYTHELRELERYRALGVADGVEGEVWNNAHTATLEDYKLKDSSESFYTPEAILEHHHHHH | soluble |
| MDTSLIRELAELALAGSGQHCHEEALCIAEWLERLGQDEAARLIRISSLANQGRYQEALAFAHGNPWPALEPWFALCEWHLGLGAALDRRLAGLGGSSDPALADFAAGMRAQVRT | soluble |
| MARVLVVDDAAFMRMLLKKILTQAGHEVVGEASNGKEAVEKYKQLKPDLVTMDIVMPEMDGITAVKEIMKIDPNAKIIMITAVGQEAKVMEALKSGAKGYIVKPFQAQKVIEEVNRVLSS | soluble |
| MKETDLRVIKTKKALSSSLLQLLEQQLFQTITVNQICDNALVHRTTFYKHFYDKYDLLEYLFNQLTKDYFARDISDRLNHPFQTMSDTINNKEDLREIAEFQEEDAEFNKVLKNVCIKIMHNDIKNNRDRIDIDSDIPDNLIFYIYDSLIEGFIHWIKDEKIDWPGEDIDNIFHRLINIKIK | soluble |
| MGSDKIHHHHHHMTVELKNILDLEKWEKLQESLALSTRLAIILVDYKGRPVTKHSQVQPFCQLVRHSPELSKLCEKCDARGGLEAVRTGQPFIYRCHFNIVDMAIPIIVDDQYVGAIMAGEVLLEDHQEELEQVLTMNDAFIQEFLVTHQELYQQYPVLELADLEKSATLIADLSQYIISEAIKKDYLINTYKQSLQISSRKEELEPLNMIQKDIQQTLLTAQLTPSSAYQTKNKQLQPVLDALWENKSLRLNLQELADLVHLTPTYLSRLLKEEFGIPFSQFYRQLKITWAKQLLLETDKTIAQISEDLGFVEDSYFVRIFKQETGETPLKYRKRKNRA | not soluble |
| RATPRMEDLASTDLSTRATGSINAVYFTNWGIYGRNFQPADLQASKILHVLYSFMNLRVDGTVYSGDTYADLEKHYSDDSWNDIGTNAYGCVKQLYKLKKANRSLKIMLSIGGWTWSTNFPAAASTEATRATFAKTAVEFMKDWGFDGIDVDWEYPASETDANNMVLLLQRVRQELDSYSATYANGYHFQLSIAAPAGPSHYNVLKLAQLGSVLDNINLMAYDYAGSWDSVSGHQTNLYPSTSNPSSTPFSTKAAVDAYIAAGVPASKIILGMPIYGRAFVGTDGPGKPYSTIGEGSWESGIWDYKVLPKAGATVITDSAAGATYSYDSSSRTMISYDTPDMVRTKVSYAKGLGLGGSMFWEASADKTGSDSLIGTALSSMGSHDSTQNCLSYPNSKFDNIKNSLS | soluble |
| MGSDKIHHHHHHMFQPPLIAFLTDFGLEDAFVGVMKGVIATICREAQVIDLTHAISAQNVRQAAFHLDRSISYFPAETIFVCVVDPGVGTARRAIGVEAGPYRFIAPDNGLLTPVFERWADAKCHELTNPAYQLANPSATFHGRDLFSPAAAHLATGVPLNAFGSAIDVANCTRIELWQNKPCDNGKVWTGEVIATDHFGNLITSFEASMLSDGEDWTVKAGNAEPLPILRTYGEVEQGKPLAYIGSSGMIEIAIRNGSASAELRVGGGDEVELRKG | not soluble |
| MCSALVVAAPHSGSGKTTVTAAIARYHRVQGRKVTVFKVGPDFIDPMILRQASGELVYQLDLWLVGEQGCRALLHRAAMDSDLILIEGVMGLFDGTPSSADLAKYFNIPVLGVIDAKAMAQTFAAVTFGLAKFCEDLPFSGVIANRVNTERHAELLSVSLPKAFRFYGRIPKDDTITLPERHLGLVQAQELSDIDVQLDKAASHIANTGLTELPSQVEFFAQEDDNQENIIEGALAGTRIIIIRDSAFSFIYAANIAFLTQTGAELIYCSAMADVHLPDGDILYIPGGYPELYAEQLMNNVTFLSDIRAFSASNKPIVAECGGMLYLLEQLTDMEGQQFSMLGLMPGKATMQKKLAAIGSQWVPLPSFADAAEDSADNIMRGHSFHYSCAEIELEPSSQTTHHPSERAGEYVYQHNNILASYMHWYFPSNPSLTLRIFDKARYLLEHHHHHH | soluble |
| SLRLKLSLTPKQDFSFDKINKHTIQGFIYSLLKDTEFGEMHNQPRFKFWCFSDIFPPNDFVKGEDKYLLISSPREEFINVLYERLDNLEEVNLNNFKFEVSELKKFDLKVKNKFITGSPIVLYKDKDRGEYIKFYDDDFDLMFFVQRLQDNAVKKYKAFYNEEPVLNGFIFDRISPRVRNGRVDVYVRIAKKGREFLVVGTTWKLLEKIKIRKEERKFYKFIMDCGLGEKNSLGFGFINPIK | not soluble |
| MVGGGGVKFIEMDIRDKEAYELAKEWFDEVVVSIKFNEEVDKEKLREARKEYGKVAILLSNPKPSLVRDTVQKFKSYLIYVESNDLRVIRYSIEKGVDAIISPWVNRKDPGIDHVLAKLMVKKNVALGFSLRPLLYSNPYERANLLRFMMKAWKLVEKYKVRRFLTSSAQEKWDVRYPRDLISLGVVIGMEIPQAKASISMYPEIILKRLKY | soluble |
| MSRETNFNGTKRKRSDVAEKVAQRWKSVRYSAEMENMAPVNSNNDSDDCVIVSESKIIDLTNQEQDLSERIETNDTAKGAVFKLMKSDFYEREDFMGEVEDMITLKDIFGTETLKRSILFSFQYELDFLLRQFHQNVENITIVGQKGTIMPIEARAMDATLAVILKKVKLIEITMPPFASHHTKLIINFYDNGECKIFLPSNNFTSMETNLPQQVCWCSPLLKIGKEGLPVPFKRSLIEYLNSYHLKDIDELITKSVEEVNFAPLSELEFVYSTPSKFQSSGLLSFYNKLEKLSAGTSASDTAKHYLCQTSSIGTSLSRARDENLWTHLMIPLFTGIMSPPAKDTAGRKKAEILPTNSLINEYSQRKIKPYIIFPTEQEFVTSPLKWSSSGWFHFQYLQKKSYYEMLRNKFKVFYKQDPAMVTRRRGTTPAHSKFYMHCATNSAGPCDASQVFKELEWCLYTSANLSQTAWGTVSRKPRNYEAGVLYHSRRLANTRKVTCRTFTRDRRGCAGNPTHVAVPFTLPVIPYDLAEDECFCLARHEND | soluble |
| ASNIYRLQQAAEAAVKTGRKIAVFGRSMEKAIVNGIELGYIKVPKGTFIEPSELKNLHASEVLIMCTGSQGESMAALARIANGTHRQVTLQPGDTVIFSSSPIPGNTTSVNKLINTIQEAGVDVIHGKVNNIHTSGHGGQQEQKLMLSLIKPKYFMPVHGEYRMQKVHAGLAMDIGIPKENIFIMENGDVLALTSDSARIAGHFNAQDIYVDGNGIGDIGAAVLRDRRDLSEDGVVLAVATVDFNTQMILAGPDILSRGFIYMRESGDLIRESQRVLFNAIRIALKNKDASIQSVNGAIVNALRPFLYEKTEREPIIIPMVL | not soluble |
| RAKKETTMTDVRIQALHFDATDQLKDFVQKKISKLNRLSDGITGAEVVLKLVKPETVQNKEASIRLYIPGDDLFAEKIADTFEEAIDLTVDALKRQIEKRKEQRK | not soluble |
| SEDEWQCTECKKFNSPSKRYCFRCWALRKDWYSDCSKLTH | soluble |
| MTEHLKSNTMVLPLKKGAQKMTTITLKVSEADKTFMKAMAKFEGVSLSELIRTKTLEALEDEYDARVADLAYQEYLEDLEKGVEPITWEEMMHDLGLKDE | not soluble |
| MRELVVIFGLSGSGKSFLASILHEKCGYEWLRSDVIRKQLAGLKPEESAKADYGKGIYTKEITKKVYEEMVKRAKELIDRGKKVVLDATFIKRWQRELVLKNFKDPFFILAFAPEEVIKERLKSRKDVSDADWNIYLKQKEEFEAPEEIDYCVINTNKSKEELESRLKKLLGCQLK | not soluble |
| MSEAKDNGSRDEVLVPHKNCRKNTTVPGKKGEEKSLAPVFAEKLISPSRRGAKLKDRESHQENEDRNSELDQDEEDKESFCRGFPMSGCELETSCCVCHSTALGERFC | soluble |
| MGSDKIHHHHHHMSSSHSKNGNENETAKGITRISVSGYKSLYDECSIEIRPLTILAGANSSGKSSIIQPLLLMKQTLEATYDPGALLLNGANVKFTSAEQLISHLPGKERIQRFVIGIEIEHNQSVKNIFTKFPRQPIDLQEMIVEKNDSKVSLSTDTLPADVVNILPKQYLDFYKSIQDTDLKGKFFFIISRNRCFLEFELYDFINQKKLSSQSFLFNYITPDHTELFGRQIRKIIHIPGLRGNPERNYKTTAVGDAFPGTFDNYVASIIHRWQRPRDKRLQELNNALVSLGLTSKVQAKQLDDTQVELRVARLTRNSDNEKDMVSIADVGFGVSQTLPVLVALLVAEPGQLVYIEQPEIHLHPRAQVAMAEILANAAKRGVKIVVETHSDRLILATQSLVAEGNLSPDLVKLHWFTRQEDGITKINSADLDETGAFGDWPEDFGDVSLQLENRYLSAAEARLIQGTHGG | not soluble |
| MSKLEFLAFYDELTGLPNKNSLIRWLNLKVSQMDCIDTYLIFLEVRDLEKLNVTYGYDLVDELIIHISKRIKDIAGEGNKAFKIGFDRFAIICKSENISDFIERMLSQLLLPYNVNGNLIRVNFNIGAAQIENSNEAAANLMRRCDLALIKAKEEGLNEYVIFKPSIEIQTLEHHHHHH | soluble |
| MIFAYNKEHVGDVLLVIVADDQGAENQVKRVGDVARVSLVEAPETVVAWNIFNASALLGDINGTGQVTLTDEQIEKVNTAIKDAGFSETLEKDDTPKIVVGFVKSCKKHPDSDHLSITQTEVDNGEILQIVCGAPNIKAGQKVVVAKPGAMMPDGLMIWPGVLRGEESFGMICSAKELRLPNAPAKKGILELPFDAEVGSAFAVGE | not soluble |
